Several values for one entry are separate records, joined by “and”; a condition that tells them apart may be missing. Identical values can stand only once. Like-named read-outs stand apart in the source and are kept apart here.
Columns and labels:
[1] = system: cocaine-induced reinstatement; assay: Reinstatement of cocaine self-administration; format: in vivo, squirrel monkeys (Saimiri sciureus)
Description: The blood level data were analyzed separately for each metabolite and time point (5 or 30 min). […] The self-administration data were analyzed separately for response rate or injections following either vehicle treatment or AlbuBChE treatment. Control data were included in the analysis by taking the average of the last 3 days for the immediately preceding baseline condition. A within subjects ANOVA was then performed with follow-up tests contrasting days following vehicle or AlbuBChE with the control. For the reinstatement tests, a two-way ANOVA was performed for both response rate and injections, with time post vehicle or AlbuBChE as the within-subjects factor and pretreatment (vehicle or AlbuBChE) as the between subjects factor. Follow-up contrast compared vehicle and AlbuBChE at each time point.

[2] = AlbuBChE serum pharmacokinetics after single 5 mg/kg IM dose (ELISA); conditions: for AlbuBChE serum concentration, individual Squirrel monkeys: 5 mg/kg IM
Description: To evaluate AlbuBChE pharmacokinetics and pharmacodynamics following a single 5 mg/kg intramuscular injection of AlbuBChE to Squirrel monkeys. AlbuBChE pharmacodynamic effect was measured following cocaine IV administration at a dose of 1 mg/kg in control animals or at 2, 72 and 96 hr post-AlbuBChE dose.
Blood samples (0.4 mL) were collected from the femoral vein and placed into serum separator tubes (SST) at pre-dose, 24, 72, 96 & 336 hrs post-dose (samples collected at 336 hr (14 days) post-dose were intended to evaluate immunogenicity. The samples were also analyzed for AlbuBChE concentration). Tubes were maintained at room temperature for at least 1 hour, but not to exceed 4 hours prior to centrifugation. Samples were centrifuged and at least 200 μL of serum was harvested and maintained on dry ice prior to storage at approximately −70° C.
Blocking is done with 2% casein in phosphate buffered saline (PBS), 200 μL/well, 2 hours at room temperature. After washing, 100 μL of diluted serum samples are added to the plates along with standards. Standards are generated through 2.6 fold, serial dilution of AlbuBChE from 420 to 5.2 ng/mL. Serum samples and standards are maintained at 10% serum by dilution with buffer containing pooled cynomolgus monkey serum. A wash step precedes detection with 100 μl of anti-HSA mAb-6502-HRP at 0.04 μg/mL for 1 hour. Wells are washed again, prior to developing with 100 μl, of tetramethylbenzidine substrate. After 15 minutes the reaction is terminated with 100 μL/well of 1N H2SO4 and read on SpectraMax plate reader at 450/570 nm. Values for unknown serum samples are calculated by interpolation of standard curve generated by 5-parameter fit of AlbuBChE standards. Serum samples collected at predose and on Day 14 postdose were also analyzed for immunogenicity.
AlbuBChE pharmacokinetic parameter values were determined using serum concentration-time profiles for individual animals. The computer software WinNonlin Professional (Version 4.0.1 Pharsight Corporation, USA) was used. Specifically the model for non-compartmental analysis with extravascular input was applied.

cocaine = assay: Effect of AlbuBChE pretreatment on cocaine-induced cardiovascular and body temperature changes; format: in vivo, cynomolgus monkeys
Description: The effect of pretreatment with AlbuBChE prior to cocaine dose on CV parameters was tested on the second group (Group 2) of animals (3 males and 3 females). First baseline CV parameters were recorded on SD 15 after an IM administration of AlbuBChE formulation buffer followed by a single IV administration of saline (cocaine vehicle), 3 hours later. The effect of cocaine on CV parameters was measured on SD 18, on which the animals received a single IM injection of AlbuBChE formulation buffer followed by a single IV dose of cocaine (1 mg/kg, IV), 3 hours later.
The effect of pretreatment with AlbuBChE on cocaine-induced changes in CV parameters was monitored on SD 22. CV parameters were recorded subsequent to a single IM dose of AlbuBChE (15 mg/kg) followed by a single IV dose of cocaine (1 mg/kg), 3 hours later (see Table 21).

[3] = Previous pharmacokinetic study, SC, IM and IV administration (bioavailability); conditions: previous study in cynomolgus monkeys
Description: AlbuBChE absolute bioavailability for IM and Sc routes of administration was calculated relative to IV at the […] dose level.
In a previous study, AlbuBChE pharmacokinetic profile was evaluated in cynomolgus monkeys. In that study, the test article was administered SC (7.8, 2.4 and 0.78 mg/kg), IM (2.4 mg/kg) and IV (2.4 mg/kg). […] In addition, AlbuBChE IM dose levels of 0.2, 1 and 5 mg/kg were selected to define AlbuBChE pharmacodynamic range in cynomolgus monkeys.

[4] = rats, i.v. injection, cited from earlier work
[5] = individual Squirrel monkeys, single IM 5 mg/kg
[6] = individual Squirrel monkeys, single IM 5 mg/kg, apparent, first sample at 24 hr
[7] = mean of 3 Squirrel monkeys, single IM 5 mg/kg
[8] = 15 mg/kg IM 3 hours before cocaine 1 mg/kg IV

## AlbuBChE
[1]; 5 mg/kg i.m., 0.3 mg/kg cocaine i.v., 2 hr time point
  Reinstatement of responding (response rate and injections): significantly blocked
[1]; 5 mg/kg, 0.1 mg/kg cocaine as reinstatement dose
  Reinstatement of responding (responses and injections): significant at 2 hrs
[2]; 24 hr post dose
  AlbuBChE serum concentration, individual Squirrel monkeys: 2340.2 ng/mL and 2296.7 ng/mL and 2036.7 ng/mL
[2]; 72 hr post dose
  AlbuBChE serum concentration, individual Squirrel monkeys: 436.9 ng/mL and 517.7 ng/mL and 433.7 ng/mL
[2]; 96 hr post dose
  AlbuBChE serum concentration, individual Squirrel monkeys: 247.5 ng/mL (2×) and 233.5 ng/mL
[2]; 336 hr post dose
  AlbuBChE serum concentration, individual Squirrel monkeys: 23.4 ng/mL and 19.0 ng/mL and 7.0 ng/mL
[2]; individual Squirrel monkeys (MKY 547, 3434, 53B), single IM 5 mg/kg AlbuBChE, serum, non-compartmental
  t½: 58.8 h and 45.5 h and 65.5 h
[2]; [5]
  AUC % Extrap: 1.17% and 0.380% and 1.61%
  AUC(0-t): 136.268 µg·h/mL and 120.596 µg·h/mL and 135.454 µg·h/mL
  AUC(0-∞): 137.881 µg·h/mL and 121.056 µg·h/mL and 137.666 µg·h/mL
[2]; [6]
  Cmax: 2297 ng/mL and 2037 ng/mL and 2340 ng/mL
  tmax: 24 h
[2]; [7]
  AUC(0-t) Mean: 130.773 µg·h/mL
  AUC(0-∞) Mean: 132.201 µg·h/mL
cocaine; [8]
  Maximum blood pressure after cocaine: decreased
  Truncation of time to reversal of blood pressure effect: 4.5 fold
cocaine; 15 mg/kg IM 3 hours before cocaine 1 mg/kg IV (77 minutes with cocaine alone)
  Time to reversal of cocaine-induced increase in mean arterial blood pressure: 17 min
cocaine; 15 mg/kg IM pre-treatment, cocaine 1 mg/kg IV, base line 38° C. (38.7° C. with cocaine alone)
  Body temperature after cocaine: 38.3 °C
cocaine; 15 mg/kg pre-treatment, cocaine 1 mg/kg IV (70% with cocaine alone)
  Cocaine-induced increase in heart rate: 30%
cocaine; 15 mg/kg pre-treatment, cocaine 1 mg/kg IV (2 hours with cocaine alone)
  Time for heart rate to return to baseline after cocaine dose: 30 min
cocaine; 15 mg/kg pre-treatment, cocaine 1 mg/kg IV, baseline 140 (240 with cocaine alone)
  Peak heart rate after cocaine: 182 beats/min
[3]; IM
  Bioavailability: 79%
[3]; SC
  Bioavailability: 35-39%
[4]
  Plasma half-life: approximately 8 hours
[4]; listed as BChE-albumin fusion
  Plasma half-life: 8 h
